Test results from publication PMC9581989.

Biological target: Lactococcus lactis pyruvate carboxylase (Lactococcus lactis)
Test: cryo-EM structure; LlPC under reaction conditions: 0.1 uM LlPC, 2 mM acetyl-CoA, 20 mM pyruvate, 2 mM ATP, 10 mM KHCO3, 5 mM MgCl2, 2 mM DTT, 200 mM NaCl, 20 mM Tris pH 7.6; symmetry expansion, focused classification of BC and CT domains

stoichiometry N: 4
Substance: Lactococcus lactis pyruvate carboxylase (enzyme)
